Consider two molecules from article PMC7472703, “DNA methylation suppresses chitin degradation and promotes the wing development by inhibiting Bmara-mediated chitinase expression in the silkworm, Bombyx mori”.

This data set concerns the target T1, Bmara (homeobox protein araucan) (Bombyx mori, UniProt A0A8R1WJM2 5-477).
T1 sequence: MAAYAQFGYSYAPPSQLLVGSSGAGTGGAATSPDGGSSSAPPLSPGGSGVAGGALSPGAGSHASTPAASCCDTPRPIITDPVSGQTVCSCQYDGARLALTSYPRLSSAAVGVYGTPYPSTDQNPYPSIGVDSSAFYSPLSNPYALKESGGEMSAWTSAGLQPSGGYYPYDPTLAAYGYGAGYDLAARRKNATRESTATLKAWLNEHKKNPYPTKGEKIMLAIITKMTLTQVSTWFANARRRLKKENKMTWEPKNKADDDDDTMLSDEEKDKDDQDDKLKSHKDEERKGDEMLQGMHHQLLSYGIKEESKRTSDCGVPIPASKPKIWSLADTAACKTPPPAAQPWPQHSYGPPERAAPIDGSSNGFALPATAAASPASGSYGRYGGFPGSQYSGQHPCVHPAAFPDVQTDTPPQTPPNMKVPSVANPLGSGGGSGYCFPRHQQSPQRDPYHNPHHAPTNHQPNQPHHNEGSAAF
The data set can be described thus: EMSA; 5 mM MgCl2, 4 mM EDTA; EMSA: 50 mM KCl, 5 mM MgCl2, 4 mM EDTA, 2.5% glycerol, 0.05% NP-40, 50 ng poly(dI-dC), 20 fmol probe, 20 uL, 20 min RT. Pull-down: 10 mM HEPES pH 7.6, 100 mM K. The note with it: protein: recombinant; tags: 6xHis (pET-28a/32a); label: 5' biotin; blunt.

B1: Wt CRE probe (BmCHT10 promoter -250 to -225; legend -250 to -221) (dsDNA)
DNA 1: TTCAGTCCACGGCTGTCTTTCAACACGGA
DNA 2: TCCGTGTTGAAAGACAGCCGTGGACTGAA
Take B1: the binding result is given as “binds”.

B2: Mut-CRE probe (dsDNA)
DNA 1: TTCAGTCCACGGCGTGACTTTCGACCGGA
DNA 2: TCCGGTCGAAAGTCACGCCGTGGACTGAA
Turning to B2, the binding result is given as “no binding”.
